Experimental data published in publication PMC4670963.

How the values were obtained:
Flag-tagged Sufu [1] = molecular target: Flag-tagged Sufu (UniProt Q9UMX1); test: co-IP; As a2 but with co-expressed exogenous HA-Hck or kinase-inactive Hck-K269E; immunoprecipitated with anti-Flag; western blot with anti-HA, anti-Flag or 4G10
Flag-tagged Sufu [2] = molecular target: Flag-tagged Sufu (UniProt Q9UMX1); test: co-IP; NIH3T3 cells transfected with HA-Gli1 or HA-Gli2 and Flag-Sufu, without exogenous Hck; immunoprecipitated with anti-Flag; western blot with anti-HA or anti-Flag; bands quantified with ImageJ against the input

Chain of UniProt Q9UMX1 (Q9UMX1 whole entry): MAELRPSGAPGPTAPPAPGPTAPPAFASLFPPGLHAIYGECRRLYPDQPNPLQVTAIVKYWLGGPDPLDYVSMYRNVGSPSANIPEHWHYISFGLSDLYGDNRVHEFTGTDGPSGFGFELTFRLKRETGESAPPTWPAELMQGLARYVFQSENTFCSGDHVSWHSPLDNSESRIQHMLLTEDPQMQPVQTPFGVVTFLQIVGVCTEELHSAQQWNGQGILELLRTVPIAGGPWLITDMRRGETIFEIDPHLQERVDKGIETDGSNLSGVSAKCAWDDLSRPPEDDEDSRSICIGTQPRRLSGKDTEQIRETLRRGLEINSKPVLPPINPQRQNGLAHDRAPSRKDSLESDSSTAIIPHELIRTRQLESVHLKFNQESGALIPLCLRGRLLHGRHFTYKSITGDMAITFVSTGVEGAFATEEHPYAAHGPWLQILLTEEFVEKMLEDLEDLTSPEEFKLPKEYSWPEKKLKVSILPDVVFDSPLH

## HA-Gli1 (from UniProt P08151 1-1106) (natural protein)
Flag-tagged Sufu [1]
  percent of Gli1 co-precipitated with Sufu (against the input), with co-expressed HA-Hck: 5%
Flag-tagged Sufu [2]
  percent of Gli1 co-immunoprecipitated with Sufu (against the input): 30%
